Data on 2 substances can be found in paper PMC11436023.

Test [1] has as its target CAP255 gp140 SpyTag (HIV-1 subtype C (patient CAP255)). The experiment in a line: SEC + native gel or EMSA; lectin-purified CAP255 gp140 SpyTag on HiLoad 16/600 Superdex 200 pg; fractions on Blue NativePAGE 3-12% Bis-Tris gels, Coomassie.
In test [2] the target is SpyCatcher mi3 nanoparticle. Nature of the test: cryo-EM structure; CAP255 gp140 SpyTag-SpyCatcher mi3 NPs; whole NP 9.4 Å (icosahedral), masked mi3 5.4 Å, single Env trimer-SpyCatcher 17.7 Å without symmetry.
Test [3] addresses SpyCatcher mi3 nanoparticle. The experiment in a line: negative stain electron microscopy; NPs alone or after coupling, on glow-discharged carbon-coated grids, 2% uranyl acetate; 2D classification and ~20 Å 3D maps with icosahedral symmetry imposed.
The target in test [4] is SpyCatcher mi3 nanoparticle. Nature of the test: covalent SpyTag-SpyCatcher coupling, read by SDS-PAGE; MBP SpyTag mixed with SpyCatcher mi3 NPs at 1:1 and 1:2 molar ratios, 4 °C overnight, TBS (25 mM Tris-HCl, 300 mM NaCl, pH 8.5); Coomassie-stained SDS-PAGE, band intensities quantified.

For the substance “CAP255 gp140 SpyTag (domain or fragment)”, the stoichiometry N in test [1] is 3. Besides, the stoichiometry N (Env trimers per NP) in test [2] and in test [3] was 12 in each case.
As for MBP SpyTag, in test [4], the coupling efficiency came out at 100% and the stoichiometry N (MBP monomers per NP) stood at 60.

The term stoichiometry N denotes the number of molecules, sites or subunits per partner or assembly.
